In the supplement of paper PMC10567573:

B1: HDAC6 (parent)
chain: KMKTRELHRESSNFDSIYICPSTF

Variants of: B1
Assay: protein stability index of a GFP-peptide fusion (GPS, HEK-293T) (PSI 1-6); higher = more stable
Conditions: c terminus: a fixed tail appended
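Note: lentivirally expressed fusions sorted by FACS into six bins by GFP to DsRed ratio, PSI derived from sequencing read proportions per bin multiplied by bin number.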

Protein stability index: each site, then its substitutions
R9: A 2.27 | C 2.39 | L 2.07 | S 2.27 | Y 2.09 | I 1.86 | E 2.77 | W 1.78 | Q 2.58 | M 1.84 | N 2.4 | P 2.45 | K 2.8 | H 2.15 | D 2.45 | V 2.85 | T 2.39 | G 2.38 | F 1.39
T4: H 1.95 | A 2.29 | R 2.41 | V 2.08 | G 2.83 | N 2.03 | E 1.99 | S 2.94 | F 2.11 | M 1.65 | P 2.05 | D 2.89 | C 1.34 | Y 2 | Q 2.26 | W 2.19 | L 1.72 | I 1.85 | K 2.39
N13: D 2.61 | T 2.35 | P 2.49 | W 1.93 | I 1.73 | K 2.23 | F 1.45 | Y 1.64 | Q 2.44 | L 1.74 | G 2.68 | H 1.58 | V 1.98 | M 2.58 | A 1.93 | C 1.79 | E 2.23 | R 3.21 | S 1.97
L7: P 2.72 | H 3.02 | M 1.46 | E 3.2 | C 1.75 | S 3.05 | K 3.11 | V 1.92 | Y 2.41 | I 2 | W 2.62 | T 2.77 | N 2.65 | G 3.12 | R 3.2 | Q 2.72 | A 3.33 | F 2.53 | D 2.73
K3: F 2.1 | N 2.32 | Q 2.38 | W 2.14 | V 2.3 | D 2.59 | E 2.94 | H 2.04 | S 2.81 | A 2.62 | P 2.15 | M 1.5 | Y 2.06 | I 1.68 | C 2.43 | T 2.2 | G 2.08 | R 2.42 | L 1.71
I17: P 2.41 | T 3.25 | V 2.27 | E 3.19 | M 2.57 | N 2.9 | K 3.31 | W 2.06 | A 2.96 | L 2.13 | Y 2.11 | Q 2.48 | C 2.49 | D 3.75 | R 2.97 | G 2.51 | S 2.45 | H 3.15 | F 1.85
E10: P 1.82 | Y 1.56 | C 2.18 | N 2.98 | S 1.79 | L 2.15 | I 1.85 | H 1.87 | A 2.51 | F 2.26 | T 2.83 | V 2.04 | Q 1.78 | G 3.45 | W 1.22 | D 2.03 | R 2.1 | K 2.71 | M 2.62
I19: T 2.25 | F 2.81 | H 3.1 | D 3.44 | P 3.35 | K 2.94 | M 1.44 | S 2.35 | A 2.74 | N 3.22 | E 3.81 | Q 3.2 | R 2.47 | C 2.34 | G 2.91 | L 3.14
E6: W 1.76 | G 1.57 | K 2 | Y 1.72 | V 2.23 | P 1.66 | L 1.44 | N 2.32 | M 1.6 | R 1.92 | H 1.96 | I 1.83 | S 2.2 | A 1.99 | F 1.86 | T 3.12 | D 2.85 | Q 2.66 | C 1.31
H8: A 1.98 | K 2.5 | D 2.22 | N 2.07 | R 2.22 | W 1.83 | L 1.97 | I 1.38 | Y 1.56 | F 1.69 | S 2.92 | G 2.15 | P 2.56 | C 1.6 | V 2.6 | T 2.21 | Q 2.92 | M 1.97 | E 2.32
S11: M 1.61 | C 1.75 | G 1.96 | N 2.3 | L 1.66 | F 1.71 | I 2.71 | H 3.04 | K 2.72 | Q 2.36 | Y 1.98 | A 1.87 | P 2.13 | T 2.41 | V 2.3 | D 2.54 | E 2.2 | W 2.85 | R 1.71
R5: E 2.73 | C 1.91 | A 1.98 | D 2.62 | W 1.72 | F 1.94 | M 2.4 | Y 1.8 | G 2.39 | Q 2.08 | H 2.88 | S 2.21 | N 2.46 | L 3.32 | V 2.27 | T 2.15 | I 1.83 | K 2.38 | P 2.36
D15: Y 1.63 | P 1.68 | M 1.92 | K 1.79 | L 4.27 | V 2.11 | W 2.21 | S 2.04 | E 1.93 | R 1.89 | G 1.69 | T 1.9 | F 2.02 | A 2 | N 2.01 | H 1.44 | Q 1.96 | C 2.82
S16: G 2.14 | M 1.66 | H 1.99 | C 1.76 | R 2.83 | D 2.68 | V 2.12 | A 1.88 | Y 1.85 | F 2.08 | K 2.29 | E 3.02 | T 2.62 | L 1.74 | Q 1.91 | N 1.31 | I 1.54 | P 2.47
Y18: V 2.86 | F 2.05 | L 2.82 | N 3.56 | M 2.4 | D 3.8 | A 4.07 | W 2.38 | P 3.33 | S 2.72 | R 2.52 | C 2.29 | T 3.32 | I 2.31 | E 3.45 | H 2.41 | G 3.09 | K 2.44 | Q 2.96
F14: S 2.8 | Q 3.71 | P 2.99 | V 2.68 | Y 1.78 | C 2.24 | W 2.01 | K 3.03 | N 3.05 | T 3.11 | R 1.7 | M 2.44 | L 2.41 | A 3.84 | D 2.79 | I 2.58 | E 3.34 | G 4.12 | H 2.88
S12: H 2.46 | T 2.17 | K 2.74 | Q 2.54 | V 2.38 | L 1.83 | N 2.04 | G 3.05 | P 2.12 | F 1.74 | E 3.25 | A 2.34 | M 1.55 | C 1.89 | Y 1.53 | R 1.95 | W 2.17 | D 2.29 | I 1.94
M2: Y 2.11 | R 2.12 | S 2.37 | Q 3.52 | P 2.96 | I 2.15 | N 2.37 | V 1.66 | K 2.91 | E 2.6 | F 2.04 | T 2.59 | G 2.33 | H 2.43 | W 2.21 | L 1.99
